Each block holds one binder with its values, some of them ahead of it.
B1: Recombinant SIG-F (mouse equivalent of human SIG-8) Fc-fusion protein (R&D Systems) (Fc fusion)
chain: TDGYSLSVTGSVTVQEGLCVFVACQVQYPNSKGPVFGYWFREGANIFSGSPVATNDPQRSVLKEAQGRFYLMGKENSHNCSLDIRDAQKIDTGTYFFRLDGSVKYSFQKSMLSVLVIALTEVPNIQVTSTLVSGNSTKLLCSVPWACEQGTPPIFSWMSSALTSLGHRTTLSSELNLTPRPQDNGTNLTCQVNLPGTGVTVERTQQLSVIYAPQKMTIRVSWGDDTGTKVLQSGASLQIQEGESLSLVCMADSNPPAVLSWERPTQKPFQLSTPAELQLPRAELEDQGKYICQAQNSQGAQTASVSLSIRSLLQLLGPSCSFEGQGLHCSCSSRAWPAPSLRWRLGEGVLEGNSSNGSFTVKSSSAGQWANSSLILSMEFSSNHRLSCEAWSDNRVQRATILLVSGPKVSQAGKSETSRGTVL
notes: Bought from R&D Systems; not shown: Fc part of the bought fusion protein
B3: Recombinant SIG-10 Fc-fusion protein (R&D Systems) (Fc fusion, human, UniProt Q96LC7 17-546, looked up)
chain: MDGRFWIRVQESVMVPEGLCISVPCSFSYPRQDWTGSTPAYGYWFKAVTETTKGAPVATNHQSREVEMSTRGRFQLTGDPAKGNCSLVIRDAQMQDESQYFFRVERGSYVRYNFMNDGFFLKVTALTQKPDVYIPETLEPGQPVTVICVFNWAFEECPPPSFSWTGAALSSQGTKPTTSHFSVLSFTPRPQDHNTDLTCHVDFSRKGVSAQRTVRLRVAYAPRDLVISISRDNTPALEPQPQGNVPYLEAQKGQFLRLLCAADSQPPATLSWVLQNRVLSSSHPWGPRPLGLELPGVKAGDSGRYTCRAENRLGSQQRALDLSVQYPPENLRVMVSQANRTVLENLGNGTSLPVLEGQSLCLVCVTHSSPPARLSWTQRGQVLSPSQPSDPGVLELPRVQVEHEGEFTCHARHPLGSQHVSLSLSVHYSPKLLGPSCSWEAEGLHCSCSSQASPAPSLRWWLGEELLEGNSSQDSFEVTPSSAGPWANSSLSLHGGLSSGLRLRCEAWNVHGAQSGSILQLPDKKGLIST
notes: Bought from R&D Systems; Held on the plate by protein A; not shown: Fc part of the bought fusion protein

What was measured:
[1] = molecular target: T1, Seq11 (recombinant vWF fragment AA 1-505 of SEQ ID NO: 1 with C-terminal Strep-Tag, from HEK 293) (human, UniProt P04275 764-1268, four O-glycosylation sites 485, 492, 493, 500 occupied (core 1, core 2 and/or extended core 1, sialylated)); test: SIGLEC ELISA, Scatchard analysis of the binding curve (apparent KD); printed SIGLEC 8, ELISA done as in Examples 8 and 9 with SIG-F
T1 construct: Expressed in HEK293 / MEXi-293 cells, purified on Strep-Tactin; not shown: C-terminal Twin-Strep-tag of the pDSG vector (IBA)
T1 sequence (P04275 764-1268): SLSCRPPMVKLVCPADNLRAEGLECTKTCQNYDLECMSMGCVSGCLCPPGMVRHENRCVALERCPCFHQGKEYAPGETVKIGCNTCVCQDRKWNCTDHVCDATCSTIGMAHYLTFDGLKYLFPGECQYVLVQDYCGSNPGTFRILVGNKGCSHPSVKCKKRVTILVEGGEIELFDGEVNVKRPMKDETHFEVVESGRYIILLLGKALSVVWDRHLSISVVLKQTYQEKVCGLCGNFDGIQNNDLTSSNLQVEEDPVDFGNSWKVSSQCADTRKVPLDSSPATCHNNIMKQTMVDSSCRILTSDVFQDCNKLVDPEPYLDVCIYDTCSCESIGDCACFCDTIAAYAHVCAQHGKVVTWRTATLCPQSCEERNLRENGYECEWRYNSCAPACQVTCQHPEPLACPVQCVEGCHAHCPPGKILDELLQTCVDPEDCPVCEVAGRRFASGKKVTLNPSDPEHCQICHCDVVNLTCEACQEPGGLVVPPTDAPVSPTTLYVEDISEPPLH

[2] = molecular target: T2, vWF C-terminal fragment (V8 protease digest of plasma derived vWF) (human, UniProt P04275 2129-2813, biotinylated with EZ-Link Sulfo-NHS-Biotin); test: ELISA: SIGLEC-Fc captured on a protein A plate (500 ng/well), biotinylated vWF fragment at 1 µg/mL, streptavidin-HRP, A492, single concentration; sheet says Siglec 8, legend says SIG-F
T2 construct: the real molecule is only its C-terminal part; also called C-terminal vWF fragment
T2 sequence (P04275 2129-2813 limits assumed): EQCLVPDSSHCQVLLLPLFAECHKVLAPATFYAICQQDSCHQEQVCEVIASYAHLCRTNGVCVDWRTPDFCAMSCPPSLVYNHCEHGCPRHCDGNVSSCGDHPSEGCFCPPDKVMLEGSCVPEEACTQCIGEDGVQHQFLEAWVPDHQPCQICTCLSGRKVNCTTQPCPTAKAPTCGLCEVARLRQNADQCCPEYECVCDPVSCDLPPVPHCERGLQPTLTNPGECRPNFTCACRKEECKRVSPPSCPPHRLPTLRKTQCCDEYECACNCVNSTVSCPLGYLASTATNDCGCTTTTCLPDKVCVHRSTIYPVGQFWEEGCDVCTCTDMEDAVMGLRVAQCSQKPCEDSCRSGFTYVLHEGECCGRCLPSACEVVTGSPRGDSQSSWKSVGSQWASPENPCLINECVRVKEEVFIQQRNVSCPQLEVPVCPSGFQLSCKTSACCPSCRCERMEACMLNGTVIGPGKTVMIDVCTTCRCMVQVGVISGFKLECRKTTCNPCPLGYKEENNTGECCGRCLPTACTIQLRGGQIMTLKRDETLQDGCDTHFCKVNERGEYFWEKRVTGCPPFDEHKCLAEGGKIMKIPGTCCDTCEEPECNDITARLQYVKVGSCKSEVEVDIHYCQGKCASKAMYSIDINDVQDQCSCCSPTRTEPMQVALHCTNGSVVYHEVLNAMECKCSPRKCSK

[3] = molecular target: T3, Recombinant SIG-5 Fc-fusion protein (R&D Systems) (human, UniProt O15389 17-434, limits assumed); test: ELISA: SIGLEC-Fc captured on a protein A plate (500 ng/well), biotinylated cluster fragment at 4 µg/mL, streptavidin-HRP, A492, single concentration
T3 construct: Bought from R&D Systems; Held on the plate by protein A; also called SIGLEC 5; not shown: Fc part of the bought fusion protein
T3 sequence (looked up): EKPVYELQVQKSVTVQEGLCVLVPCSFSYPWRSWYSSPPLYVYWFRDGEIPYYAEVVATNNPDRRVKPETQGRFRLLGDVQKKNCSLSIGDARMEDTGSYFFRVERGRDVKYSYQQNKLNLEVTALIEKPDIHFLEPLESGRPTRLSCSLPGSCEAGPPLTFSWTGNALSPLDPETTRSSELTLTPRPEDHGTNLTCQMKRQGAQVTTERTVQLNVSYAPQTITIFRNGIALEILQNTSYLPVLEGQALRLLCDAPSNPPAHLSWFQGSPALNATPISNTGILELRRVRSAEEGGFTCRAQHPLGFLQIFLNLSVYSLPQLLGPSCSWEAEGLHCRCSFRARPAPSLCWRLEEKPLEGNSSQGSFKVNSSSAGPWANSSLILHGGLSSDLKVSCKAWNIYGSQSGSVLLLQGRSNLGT

[4] = molecular target: T4, Recombinant SIG-7 Fc-fusion protein (R&D Systems) (human, UniProt Q9Y286 19-357, limits assumed); test: as above
T4 construct: Bought from R&D Systems; Held on the plate by protein A; also called SIGLEC 7; not shown: Fc part of the bought fusion protein
T4 sequence (Q9Y286 19-357 limits assumed): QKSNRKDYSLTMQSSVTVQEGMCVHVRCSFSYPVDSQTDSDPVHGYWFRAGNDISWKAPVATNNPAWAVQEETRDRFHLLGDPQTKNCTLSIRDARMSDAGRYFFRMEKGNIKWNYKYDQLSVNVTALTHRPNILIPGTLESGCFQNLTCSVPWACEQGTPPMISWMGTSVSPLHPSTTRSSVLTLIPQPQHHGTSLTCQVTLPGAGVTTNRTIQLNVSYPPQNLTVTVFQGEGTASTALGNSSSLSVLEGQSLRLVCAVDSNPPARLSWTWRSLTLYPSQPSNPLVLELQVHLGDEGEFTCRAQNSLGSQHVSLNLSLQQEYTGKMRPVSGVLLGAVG

[5] = molecular target: T5, Recombinant SIG-9 Fc-fusion protein (R&D Systems) (human, UniProt Q9Y336 18-348); test: as above
T5 construct: Bought from R&D Systems; Held on the plate by protein A; also called SIGLEC 9; not shown: Fc part of the bought fusion protein
T5 sequence (Q9Y336 18-348 limits assumed): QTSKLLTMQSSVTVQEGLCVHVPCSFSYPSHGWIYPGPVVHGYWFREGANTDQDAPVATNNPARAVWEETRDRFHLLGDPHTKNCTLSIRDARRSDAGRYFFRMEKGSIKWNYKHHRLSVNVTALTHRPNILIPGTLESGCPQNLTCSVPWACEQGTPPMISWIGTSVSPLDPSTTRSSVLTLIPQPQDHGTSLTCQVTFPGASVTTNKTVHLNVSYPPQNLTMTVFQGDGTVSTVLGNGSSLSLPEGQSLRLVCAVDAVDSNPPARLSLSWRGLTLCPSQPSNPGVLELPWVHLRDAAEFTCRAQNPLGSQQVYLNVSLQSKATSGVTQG

[6] = molecular target: B3; test: as above
[7] = molecular target: B1; test: ELISA: SIGLEC-Fc captured on a protein A plate (500 ng/well), biotinylated cluster fragment at 4 µg/mL, streptavidin-HRP, A492, single concentration; sheet says Siglec 8, legend says SIG-F
[8] = molecular target: T6, Plasma derived VWF (pdVWF), biotinylated (human, UniProt P04275 764-2813, biotinylated with EZ-Link Sulfo-NHS-Biotin; natural N- and O-glycans of plasma vWF); test: ELISA: SIGLEC-Fc captured on a protein A plate (500 ng/well), biotinylated plasma derived vWF 0-0.8 µg/mL, streptavidin-HRP, A492
T6 construct: Plasma-derived multimeric glycoprotein; also called von Willebrand factor; full length vWF
T6 sequence (P04275 764-2813 limits assumed): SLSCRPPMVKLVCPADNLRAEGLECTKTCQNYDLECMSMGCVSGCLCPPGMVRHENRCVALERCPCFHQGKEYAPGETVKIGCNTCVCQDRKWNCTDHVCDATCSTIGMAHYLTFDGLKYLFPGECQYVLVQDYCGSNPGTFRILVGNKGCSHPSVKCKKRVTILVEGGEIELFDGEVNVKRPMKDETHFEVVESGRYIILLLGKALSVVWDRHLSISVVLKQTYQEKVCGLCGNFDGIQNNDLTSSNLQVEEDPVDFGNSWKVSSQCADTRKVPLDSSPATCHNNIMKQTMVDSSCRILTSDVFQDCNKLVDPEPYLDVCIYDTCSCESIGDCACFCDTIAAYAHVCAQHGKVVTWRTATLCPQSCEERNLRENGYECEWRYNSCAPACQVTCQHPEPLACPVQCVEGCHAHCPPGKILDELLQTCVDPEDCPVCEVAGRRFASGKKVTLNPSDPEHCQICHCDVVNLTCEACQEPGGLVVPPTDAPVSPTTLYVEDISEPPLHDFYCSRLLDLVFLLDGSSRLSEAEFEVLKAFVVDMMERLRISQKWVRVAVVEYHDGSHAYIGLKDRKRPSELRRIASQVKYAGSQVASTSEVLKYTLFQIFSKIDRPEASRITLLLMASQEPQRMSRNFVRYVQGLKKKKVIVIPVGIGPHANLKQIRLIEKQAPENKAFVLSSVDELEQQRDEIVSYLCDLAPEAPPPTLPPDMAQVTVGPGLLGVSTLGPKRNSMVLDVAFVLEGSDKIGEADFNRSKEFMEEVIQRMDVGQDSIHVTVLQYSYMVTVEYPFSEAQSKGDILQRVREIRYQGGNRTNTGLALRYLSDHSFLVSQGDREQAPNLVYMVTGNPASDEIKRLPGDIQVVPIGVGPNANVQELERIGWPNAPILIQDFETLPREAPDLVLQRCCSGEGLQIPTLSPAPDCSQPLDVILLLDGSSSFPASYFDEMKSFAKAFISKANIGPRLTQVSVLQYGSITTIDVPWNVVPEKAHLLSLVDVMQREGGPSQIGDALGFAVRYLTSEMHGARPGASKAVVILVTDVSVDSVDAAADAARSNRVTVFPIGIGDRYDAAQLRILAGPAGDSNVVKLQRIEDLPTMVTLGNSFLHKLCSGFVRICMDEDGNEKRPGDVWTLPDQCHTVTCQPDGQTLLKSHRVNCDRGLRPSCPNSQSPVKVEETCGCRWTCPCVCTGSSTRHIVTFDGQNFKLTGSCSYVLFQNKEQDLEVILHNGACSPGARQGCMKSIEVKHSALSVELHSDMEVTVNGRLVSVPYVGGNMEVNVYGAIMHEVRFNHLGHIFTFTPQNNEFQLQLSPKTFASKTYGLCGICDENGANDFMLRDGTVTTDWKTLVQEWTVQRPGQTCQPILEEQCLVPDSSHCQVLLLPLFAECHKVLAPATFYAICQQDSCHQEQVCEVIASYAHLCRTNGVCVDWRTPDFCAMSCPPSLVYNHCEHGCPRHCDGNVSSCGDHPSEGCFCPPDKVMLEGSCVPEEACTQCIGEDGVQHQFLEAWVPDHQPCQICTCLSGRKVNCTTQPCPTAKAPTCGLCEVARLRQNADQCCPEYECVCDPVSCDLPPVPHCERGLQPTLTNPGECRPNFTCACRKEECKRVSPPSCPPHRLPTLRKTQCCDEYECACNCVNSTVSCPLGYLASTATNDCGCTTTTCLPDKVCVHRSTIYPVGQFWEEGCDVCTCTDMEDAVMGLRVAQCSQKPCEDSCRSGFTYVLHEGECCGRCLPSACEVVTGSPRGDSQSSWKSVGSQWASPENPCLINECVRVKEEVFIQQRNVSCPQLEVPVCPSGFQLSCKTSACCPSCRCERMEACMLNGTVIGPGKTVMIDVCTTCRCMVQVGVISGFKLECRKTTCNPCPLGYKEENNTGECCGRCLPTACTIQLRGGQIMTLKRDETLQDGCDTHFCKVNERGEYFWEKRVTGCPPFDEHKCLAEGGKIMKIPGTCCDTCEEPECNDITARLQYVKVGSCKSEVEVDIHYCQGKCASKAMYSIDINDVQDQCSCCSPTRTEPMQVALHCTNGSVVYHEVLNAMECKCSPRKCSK

Binder: B1
Kd [1]: 1.03 µM | binding result [2]: no binding (tested: 1 µg/mL)

binding result [3]: no binding (tested: 4 µg/mL) | binding result [4]: no binding (tested: 4 µg/mL) | binding result [5]: no binding (tested: 4 µg/mL) | binding result [6]: no binding (tested: 4 µg/mL) | binding result [7]: no binding (tested: 4 µg/mL)
B2: Cluster 1 fragment (tryptic glycopeptide of plasma derived vWF, AA 449 to 511) (peptide)
peptide: VTLNPSDPEHC(Maleimide‑PEG2‑Biotin)QIC(Maleimide‑PEG2‑Biotin)HC(Maleimide‑PEG2‑Biotin)DVVNLTC(Maleimide‑PEG2‑Biotin)EAC(Maleimide‑PEG2‑Biotin)QEPGGLVVPPTDAPVSPTTLYVEDISEPPLHDFYC(Maleimide‑PEG2‑Biotin)SR
modifications: also: natural O-glycans (sialylated core 2), sites not given here
notes: also called Cluster I; O-glycosylation Cluster I

Binder: B3
binding result [8]: no binding (tested: 0.8 µg/mL)
